{
  "source": "paper PMC4499159",
  "about": "“Quantitative characterization of protein–protein complexes involved in base excision DNA repair”",
  "binders": {"B1": {"name": "gap-DNA (dsDNA)", "DNA 1": "GGCGATTAAGTTGGG", "DNA 2": "AACGTCAGGGTCTTCC", "DNA 3": "GGAAGACCCTGACGTTACCCAACTTAATCGCC", "modifications": "5'-phosphate on downstream primer"}},
  "key": {"XRCC1": {"biological_target": "XRCC1 (human, UniProt P18887 1-633)", "test": "fluorescence titration; TAF-XRCC1; n 0.90; 50 mM HEPES pH 8.0, 100 mM NaCl, 4 mM DTT (+10 mM EDTA for APE1); labelled protein from 20 nM; temperature not stated", "details": "protein: recombinant; tags: TAF-labelled; blunt outer ends, 1-nt gap; upstream 15-mer + downstream 16-mer on 32-mer template"}, "[1]": {"biological_target": "T1, DNA polymerase beta (Polβ) (rat, UniProt P06766 1-335)", "test": "fluorescence titration; TAF-Polβ; n 0.94; 50 mM HEPES pH 8.0, 100 mM NaCl, 4 mM DTT (+10 mM EDTA for APE1); labelled protein from 20 nM; temperature not stated"}, "[2]": {"biological_target": "T1, DNA polymerase beta (Polβ)", "test": "fluorescence titration; FAM-Polβ; n 1.3; 50 mM HEPES pH 8.0, 100 mM NaCl, 4 mM DTT (+10 mM EDTA for APE1); labelled protein from 20 nM; temperature not stated"}, "AP endonuclease 1 (APE1)": {"biological_target": "AP endonuclease 1 (APE1) (human, UniProt P27695 1-318)", "test": "fluorescence titration; TAF-APE1; 10 mM EDTA; n 1.15; 50 mM HEPES pH 8.0, 100 mM NaCl, 4 mM DTT (+10 mM EDTA for APE1); labelled protein from 20 nM; temperature not stated", "details": "protein: recombinant; tags: TAF- or FAM-labelled (terminal amino group primarily); blunt outer ends, 1-nt gap; upstream 15-mer + downstream 16-mer on 32-mer template"}},
  "data": [
    {"binder": "B1", "values": [
      {"measurement": "apparent K (half saturation)", "setting": "XRCC1", "value": "25 ± 4", "unit": "nM"},
      {"measurement": "apparent K (half saturation)", "setting": "[1]", "value": 30, "unit": "nM"},
      {"measurement": "apparent K (half saturation)", "setting": "[2]", "value": 23, "unit": "nM"},
      {"measurement": "apparent K (half saturation)", "setting": "AP endonuclease 1 (APE1)", "value": "25 ± 3", "unit": "nM"}
    ]}
  ]
}
